Results reported in patent US20170246255.

Experiments:
[1] = tested on: T1, model thrombin substrate peptide WALAPRSFA
T1 sequence: WALAPRSFA

[2] = tested on: T2, model peptide analog WALAPRXFA (X = tertiary leucine)
T2 sequence: WALAPRXFA

With thrombin the “cleavage of the peptide by the enzyme, C18 reverse phase HPLC and mass spectra after 4 hours at 23° C. with 10 nM thrombin” value [1] was “unmodified peptide was efficiently cleaved by thrombin to yield the cleavage product WALAPR” and the “cleavage of the peptide by the enzyme, C18 reverse phase HPLC and mass spectra after 4 hours at 23° C. with 10 nM thrombin” value [2] was “the TLE substituted peptide analog was not cleaved by thrombin under these conditions”.
